This note sets out measurements from patent publication US20130177660A1 (NATIONAL UNIVERSITY CORPORATION NAGOYA UNIVERSITY, published 2013).

For the assay, the target named is T1, Flag-RFP (Flag-tagged RET finger protein) (Homo sapiens, UniProt P14373 1-513).
T1 construct: Expressed by transient transfection in HEK293 cells and tested in cell lysates by co-immunoprecipitation; also called TRIM27; pFlag-RFP; not shown: Flag tag from the pFlag vector
T1 sequence: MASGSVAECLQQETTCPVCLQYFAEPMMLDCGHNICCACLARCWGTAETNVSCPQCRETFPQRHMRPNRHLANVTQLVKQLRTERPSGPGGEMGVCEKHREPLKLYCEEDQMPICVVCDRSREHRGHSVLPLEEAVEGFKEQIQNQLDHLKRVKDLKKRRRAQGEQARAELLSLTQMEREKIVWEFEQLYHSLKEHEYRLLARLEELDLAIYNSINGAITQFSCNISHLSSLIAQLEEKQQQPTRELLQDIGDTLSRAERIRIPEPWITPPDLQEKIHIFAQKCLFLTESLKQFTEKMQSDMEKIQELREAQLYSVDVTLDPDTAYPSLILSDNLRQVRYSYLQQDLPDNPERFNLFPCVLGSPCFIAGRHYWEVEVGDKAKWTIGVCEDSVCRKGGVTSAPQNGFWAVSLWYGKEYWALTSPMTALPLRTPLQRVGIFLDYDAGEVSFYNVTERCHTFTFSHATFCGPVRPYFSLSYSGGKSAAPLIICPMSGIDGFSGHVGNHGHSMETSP
Put plainly: co-IP from HEK293 cells co-transfected with GFP-RFP and Flag-RFP; anti-Flag IP, anti-GFP blot. The text has this: FIG. 7 RFP Oligomerization (a) RFP forms homo-oligomer, HEK293 cells were co-transfected with GFP-RFP and Flag-RFP, and immunoprecipitated with anti-Flag antibody followed by immunoblotting with anti-Flag and anti-GFP antibodies. Anti-HA antibody was used as mock. WCL: whole cell lysates. (b) Ring-B-box and Coiled-coil domains, but not Rfp domain, of RFP were required for its oligomerization. HEK293 cells were co-transfected with GFP-RFP and Flag tagged RFP deletion constructs, and immunoprecipitated with anti-Flag antibody. The pFlag vector was used as control. Arrow heads indicate Flag-tagged RFP constructs.

B1: GFP-RFP (other)
chain: T1 sequence
notes: RFP cDNA inserted into the pEGFP-C1 vector; also called RFP in pEGFP-C1; not shown: GFP (EGFP of the pEGFP-C1 vector) and linker
For the molecule B1, the binding result is listed as “binds”.
